In patent publication US20080207488:

T1: β2-glycoprotein I purified from fresh human plasma, P02749
T1 chain: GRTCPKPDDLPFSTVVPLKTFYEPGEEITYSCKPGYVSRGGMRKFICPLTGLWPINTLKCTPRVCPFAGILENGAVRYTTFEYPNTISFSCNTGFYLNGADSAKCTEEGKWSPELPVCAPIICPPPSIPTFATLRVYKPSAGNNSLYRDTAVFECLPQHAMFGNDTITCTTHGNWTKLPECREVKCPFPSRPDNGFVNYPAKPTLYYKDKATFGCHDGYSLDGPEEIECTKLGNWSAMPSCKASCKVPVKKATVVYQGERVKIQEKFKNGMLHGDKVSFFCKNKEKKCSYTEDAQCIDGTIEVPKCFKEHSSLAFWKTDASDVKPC

T2: recombinant human β2-glycoprotein I, P02749
T2 chain: T1 chain

T3: human fibrin α-chain (148-160) amyloid fragment with Lys157Gly mutation (FP13), aggregated
T3 chain: KRLEVDIDIGIRS

T4: freshly dissolved FP13 K157G
T4 chain: KRLEVDIDIGIRS

T5: non-amyloid fragment FP10 of human fibrin α-chain (148-157)
T5 chain: KRLEVDIDIK

B1: tissue-type plasminogen activator (tPA) (protein)
chain: SYQVICRDEKTQMIYQQHQSWLRPVLRSNRVEYCWCNSGRAQCHSVPVKSCSEPRCFNGGTCQQALYFSDFVCQCPEGFAGKCCEIDTRATCYEDQGISYRGTWSTAESGAECTNWNSSALAQKPYSGRRPDAIRLGLGNHNYCRNPDRDSKPWCYVFKAGKYSSEFCSTPACSEGNSDCYFGNGSAYRGTHSLTESGASCLPWNSMILIGKVYTAQNPSAQALGLGKHNYCRNPDGDAKPWCHVLKNRRLTWEYCDVPSCSTCGLRQYSQPQFRIKGGLFADIASHPWQAAIFAKHRRSPGERFLCGGILISSCWILSAAHCFQERFPPHHLTVILGRTYRVVPGEEEQKFEVEKYIVHKEFDDDTYDNDIALLQLKSDSSRCAQESSVVRTVCLPPADLQLPDWTECELSGYGKHEALSPFYSERLKEAHVRLYPSSRCTSQHLLNRTVTDNMLCAGDTRSGGPQANLHDACQGDSGGPLVCLNDGRMTLVGIISWGLGCGQKDVPGVYTKVTNYLDWIRDNMRP
B2: factor XII purified from human plasma (protein)
chain: IPPWEAPKEHKYKAEEHTVVLTVTGEPCHFPFQYHRQLYHKCTHKGRPGPQPWCATTPNFDQDQRWGYCLEPKKVKDHCSKHSPCQKGGTCVNMPSGPHCLCPQHLTGNHCQKEKCFEPQLLRFFHKNEIWYRTEQAAVARCQCKGPDAHCQRLASQACRTNPCLHGGRCLEVEGHRLCHCPVGYTGAFCDVDTKASCYDGRGLSYRGLARTTLSGAPCQPWASEATYRNVTAEQARNWGLGGHAFCRNPDNDIRPWCFVLNRDRLSWEYCDLAQCQTPTQAAPPTPVSPRLHVPLMPAQPAPPKPQPTTRTPPQSQTPGALPAKREQPPSLTRNGPLSCGQRLRKSLSSMTRVVGGLVALRGAHPYIAALYWGHSFCAGSLIAPCWVLTAAHCLQDRPAPEDLTVVLGQERRNHSCEPCQTLAVRSYRLHEAFSPVSYQHDLALLRLQEDADGSCALLSPYVQPVCLPSGAARPSETTLCQVAGWGHQFEGAEEYASFLQEAQVPFLSLERCSAPDVHGSSILPGMLCAGFLEGGTDACQGDSGGPLVCEDQAAERRLTLQGIISWGSGCGDRNKPGVYTDVAYYLAWIREHTVS

Experiments:
[1] = molecular target: T1, β2-glycoprotein I purified from fresh …
[2] = molecular target: T2, recombinant human β2-glycoprotein I, …
[3] = molecular target: T3, human fibrin α-chain (148-160) amyloid …
[4] = molecular target: T4, freshly dissolved FP13 K157G
[5] = molecular target: human amyloid-β (Aβ) (1-40) Dutch type
[6] = molecular target: glycated human haemoglobin (Hb-AGE), P69905
[7] = molecular target: T5, non-amyloid fragment FP10 of human …
[8] = molecular target: native haemoglobin (Hb), P69905
Sequence of native haemoglobin (Hb), P69905 (P69905 2-142, chain 1 of 2): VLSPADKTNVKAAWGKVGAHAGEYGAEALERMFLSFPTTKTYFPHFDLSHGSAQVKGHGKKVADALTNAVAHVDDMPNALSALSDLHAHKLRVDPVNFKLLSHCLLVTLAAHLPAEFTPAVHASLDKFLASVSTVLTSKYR
Sequence of native haemoglobin (Hb), P69905 (chain, as listed by the source, chain 2 of 2): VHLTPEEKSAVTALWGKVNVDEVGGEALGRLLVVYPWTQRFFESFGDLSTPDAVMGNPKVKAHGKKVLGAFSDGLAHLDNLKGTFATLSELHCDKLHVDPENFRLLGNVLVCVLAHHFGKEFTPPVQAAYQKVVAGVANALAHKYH

Sequence of glycated human haemoglobin (Hb-AGE), P69905 (P69905 2-142, chain 1 of 2): as the sequence (P69905 2-142, chain 1 of 2) above
Sequence of glycated human haemoglobin (Hb-AGE), P69905 (chain, as listed by the source, chain 2 of 2): as the sequence (chain, as listed by the source, chain 2 of 2) above

Protein | tPA-mediated conversion of Plg to Pls (substrate S-2251) [1] | tPA-mediated conversion of Plg to Pls (substrate S-2251) [2] | activation of factor XII (conversion of Chromozym PK by kallikrein) (LAM12) | activation of factor XII (conversion of Chromozym PK by kallikrein) [3] | factor XII auto-activation (substrate S-2222) [3] | factor XII auto-activation (substrate S-2222) [4] | activation of factor XII (conversion of Chromozym PK by kallikrein) [5] | factor XII auto-activation (substrate S-2222) [5] | activation of factor XII (conversion of Chromozym PK by kallikrein) (mIAPP) | factor XII auto-activation (substrate S-2222) [6] | activation of factor XII (conversion of Chromozym PK by kallikrein) [7] | activation of factor XII (conversion of Chromozym PK by kallikrein) (TTR11) | factor XII auto-activation (substrate S-2222) [8]
B1 | but not β2GPI purified from fresh plasma | Recombinant β2GPI, but not β2GPI purified from fresh plasma stimulate tPA-mediated conversion of Plg to Pls |  |  |  |  |  |  |  |  |  |  | 
B2 |  |  | LAM12 and TTR11 stimulate factor XII activation, to a similar extent as kaolin | amyloid-like peptide aggregates of FP13 and Aβ stimulate the activation of factor XII | All three amyloid-like aggregates are able to induce factor XII auto-activation | did not or hardly auto-activate factor XII (not shown) | amyloid-like peptide aggregates of FP13 and Aβ stimulate the activation of factor XII | All three amyloid-like aggregates are able to induce factor XII auto-activation; the potency of the Aβ(1-40) E22Q was somewhat lower | non-amyloid controls FP10 and mIAPP do not activate factor XII | All three amyloid-like aggregates are able to induce factor XII auto-activation | non-amyloid controls FP10 and mIAPP do not activate factor XII | LAM12 and TTR11 stimulate factor XII activation, to a similar extent as kaolin | did not or hardly auto-activate factor XII (not shown)
